This assay deals with NKG2D ligands (NKG2DL) on target cells. Kind of assay: cell-based or functional assay.

In turn, “NKG2D-DAP10-CD3zeta chimeric receptor complex (from UniProt Q9UBK5 19-93)” showed a target cell apoptosis (U-2 OS), apoptotic cells/0.07 mm^2 (apoptotic cells/0.07 mm^2) of 11.7.

The values above are taken from patent publication US20180135015A1.
